To fix the notation:
B1: SmBiT-MYC 1-190 [human] / TRRAP 2033-2283-LgBiT [not stated] (parent complex)
chain 1: MPLNVSFTNRNYDLDYDSVQPYFYCDEEENFYQQQQQSELQPPAPSEDIWKKFELLPTPPLSPSRRSGLCSPSYVAVTPFSLRGDNDGGGGSFSTADQLEMVTELLGGDMVNQSFICDPDDETFIKNIIIQDCMWSGFSAAAKLVSEKLASYQAARKDSGSPNPARGHSVCSTSSLYLQDLSAAASECID
chain 2: NSSGEGVNSVSSSIKRGLSVDSAQEVKRFRTATGAISAVFGRSQSLPGADSLLAKPIDKQHTDTVVNFLIRVACQVNDNTNTAGSPGEVLSRRCVNLLKTALRPDMWPKSELKLQWFDKLLMTVEQPNQVNYGNICTGLEVLSFLLTVLQSPAILSSFKPLQRGIAACMTCGNTKVLRAVHSLLSRLMSIFPTEPSTSSVASKYEELECLYAAVGKVIYEGLTNYEKATNANPSQLFGTLMILKSACSNNP

This assay covers variants of B1. The experiment in a line: luminescence complementation (NanoBiT) in transfected cells; normalized for MYC expression level; parent: 100; read off a plot.
In the case of chain 1 W135A, the percent of parent was ~35 % RLU to WT. Take chain 1 F138A: the percent of parent is ~24 % RLU to WT. The same measure for chain 1 T58I: ~102 % RLU to WT; for chain 1 S136A: ~77 % RLU to WT. Next, chain 1 M134A: ~43 % RLU to WT.

Values taken from paper PMC8522838 (2021).
